Experimental data taken from publication PMC3074162.
Values belong to the molecule of their own block, whether it stands above or below them.

Legend:
[1] = target: ParB 65–139 (C-terminal DNA-binding RHH domain of pCXC100 ParB) (Leifsonia xyli subsp. cynodontis (plasmid pCXC100)) (UniProt Q6ABV9); assay: crystal structure
ParB 65-139 (RHH domain) [2] = target: T1, ParB 65-139 (RHH domain) (Leifsonia xyli subsp. cynodontis …, UniProt Q6EEF9 65-139); assay: EMSA
T1 sequence: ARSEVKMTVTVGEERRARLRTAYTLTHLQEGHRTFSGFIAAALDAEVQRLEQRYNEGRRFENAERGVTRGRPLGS

ParB 65-139 (RHH domain) [3] = target: T1, ParB 65-139 (RHH domain); assay: ITC
ParB 65-139 (RHH domain) [4] = target: T1, ParB 65-139 (RHH domain); assay: EMSA; remark: listed apart in the source
ParB 65-139 (RHH domain) [5] = target: T1, ParB 65-139 (RHH domain); assay: EMSA; remark: listed apart in the source
ParB 65-139 (RHH domain) [6] = target: T1, ParB 65-139 (RHH domain); assay: ITC; remark: listed apart in the source
ParB 65-139 (RHH domain) [7] = target: T1, ParB 65-139 (RHH domain); assay: ITC; remark: listed apart in the source
ParB 65-139 (RHH domain) [8] = target: T1, ParB 65-139 (RHH domain); assay: ITC; remark: listed apart in the source
ParB 65-139 (RHH domain) [9] = target: T1, ParB 65-139 (RHH domain); assay: ITC; remark: listed apart in the source
ParB 65-139 (RHH domain) [10] = target: T1, ParB 65-139 (RHH domain); assay: EMSA; remark: listed apart in the source
ParB 65-139 (RHH domain) [11] = target: T1, ParB 65-139 (RHH domain); assay: ITC; remark: listed apart in the source
ParB 65-139 (RHH domain) [12] = target: T1, ParB 65-139 (RHH domain); assay: EMSA; remark: listed apart in the source
ParB 65-139 (RHH domain) [13] = target: T1, ParB 65-139 (RHH domain); assay: EMSA; remark: listed apart in the source
ParB 65-139 (RHH domain) [14] = target: T1, ParB 65-139 (RHH domain); assay: EMSA; remark: listed apart in the source

stoichiometry N [1]: 2
Molecule: ParB 65–139 (C-terminal DNA-binding RHH domain of pCXC100 ParB) (from UniProt Q6ABV9 65-139) (domain or fragment)

B1: R4-18-3 (dsDNA)
DNA 1: GGTGGAAAAGCCAGAAAC
DNA 2: GTTTCTGGCTTTTCCACC
binding result (ParB 65-139 (RHH domain) [2]): binds

B2: R11-18 (dsDNA)
DNA 1: AGAACACGCCGAACGGCC
DNA 2: GGCCGTTCGGCGTGTTCT
binding result (ParB 65-139 (RHH domain) [3]): no binding

B3: 1R6'-18 (dsDNA)
DNA 1: GGGTAAGATGGGTAAGAT
DNA 2: ATCTTACCCATCTTACCC
binding result (ParB 65-139 (RHH domain) [4]): binds

B4: 2R6'-27 (dsDNA)
DNA 1: GGGTAAGATGGGTAAGATGGGTAAGAT
DNA 2: ATCTTACCCATCTTACCCATCTTACCC
Kd (ParB 65-139 (RHH domain) [5]): 877 nM

B5: 1R3'-18 (dsDNA)
DNA 1: GGAAAAGGTGGAAAAGGT
DNA 2: ACCTTTTCCACCTTTTCC
binding result (ParB 65-139 (RHH domain) [4]): binds

B6: R4-18+4 (dsDNA)
DNA 1: AAGCCAGAAACAGTGGGA
DNA 2: TCCCACTGTTTCTGGCTT
binding result (ParB 65-139 (RHH domain) [2]): binds

B7: R0-18 (dsDNA)
DNA 1: TGCTCGATCTGGCTATCC
DNA 2: GGATAGCCAGATCGAGCA
binding result (ParB 65-139 (RHH domain) [3]): no binding

B8: R3-18 (dsDNA)
DNA 1: GGAATAGGTGGAAAAGCC
DNA 2: GGCTTTTCCACCTATTCC
Kd (ParB 65-139 (RHH domain) [6]): 31 ± 12 nM
Kd (ParB 65-139 (RHH domain) [7]): 37 ± 10 nM
Kd (ParB 65-139 (RHH domain) [8]): 30 ± 10 nM

B9: R9-18 (dsDNA)
DNA 1: GGAATTGTTTGCTACGGT
DNA 2: ACCGTAGCAAACAATTCC
Kd (ParB 65-139 (RHH domain) [9]): 17 ± 6 nM
Kd (ParB 65-139 (RHH domain) [6]): 11 ± 9 nM

B10: R4-18 (dsDNA)
DNA 1: GGAAAAGCCAGAAACAGT
DNA 2: ACTGTTTCTGGCTTTTCC
Kd (ParB 65-139 (RHH domain) [6]): 87 ± 59 nM
Kd (ParB 65-139 (RHH domain) [7]): 60 ± 12 nM

B11: R4-18-1 (dsDNA)
DNA 1: TGGAAAAGCCAGAAACAG
DNA 2: CTGTTTCTGGCTTTTCCA
binding result (ParB 65-139 (RHH domain) [10]): binds

B12: R4-18-2 (dsDNA)
DNA 1: GTGGAAAAGCCAGAAACA
DNA 2: TGTTTCTGGCTTTTCCAC
binding result (ParB 65-139 (RHH domain) [2]): binds

B13: R3-18-10A (dsDNA)
DNA 1: GGAATAGGTAGAAAAGCC
DNA 2: GGCTTTTCTACCTATTCC
Kd (ParB 65-139 (RHH domain) [11]): 30 ± 10 nM

B14: R4-18+3 (dsDNA)
DNA 1: AAAGCCAGAAACAGTGGG
DNA 2: CCCACTGTTTCTGGCTTT
binding result (ParB 65-139 (RHH domain) [2]): binds

B15: R4-18+1 (dsDNA)
DNA 1: GAAAAGCCAGAAACAGTG
DNA 2: CACTGTTTCTGGCTTTTC
binding result (ParB 65-139 (RHH domain) [10]): binds

B16: 2R3'-27 (dsDNA)
DNA 1: GGAAAAGGTGGAAAAGGTGGAAAAGGT
DNA 2: ACCTTTTCCACCTTTTCCACCTTTTCC
Kd (ParB 65-139 (RHH domain) [12]): 112 nM

B17: R10-18 (dsDNA)
DNA 1: TGCTACGGTAGAACACGC
DNA 2: GCGTGTTCTACCGTAGCA
binding result (ParB 65-139 (RHH domain) [3]): no binding

B18: R2R3-27 (dsDNA)
DNA 1: AGTAAAGTAGGAATAGGTGGAAAAGCC
DNA 2: GGCTTTTCCACCTATTCCTACTTTACT
binding result (ParB 65-139 (RHH domain) [13]): binds

B19: R2R3-18 (dsDNA)
DNA 1: AGTAGGAATAGGTGGAAA
DNA 2: TTTCCACCTATTCCTACT
binding result (ParB 65-139 (RHH domain) [14]): binds
